Laboratory results as given in the supplement of paper PMC9170038.

Legend:
MS2 coat protein [1] = assay: apparent KD of MS2 coat protein, switch ON state; designed switch direction (-1 OFF switch, 1 ON switch): 1; higher = weaker reporter binding; settings: FMN input: 0 or 200 uM; Eterna round: R93 (includes R88 designs)
Summary of the method: (§1)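 Illumina sequencing clusters were used for on-chip transcription of designed RNA switches. Titration with SNAP-549-labelled MS2 coat protein followed, in twofold steps from 0.7 or 1.5 nM to 3 µM in 100 mM Tris-HCl pH 7.5, 80 mM KCl, 4 mM MgCl2, without or with constant ligand. Apparent KD is each design's median of fits to normalised cluster binding curves.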

MS2 coat protein [2] = assay: apparent KD of MS2 coat protein, switch OFF state (with FMN for OFF switches, without FMN for ON switches); designed switch direction (-1 OFF switch, 1 ON switch): 1; higher = weaker reporter binding; settings: FMN input: 0 or 200 uM; Eterna round: R93 (includes R88 designs)
Summary of the method: as §1

Sequence	apparent KD of MS2 coat protein (MS2 coat protein [1])	apparent KD of MS2 coat protein (MS2 coat protein [2])
AAUAAGACUAGCAAGGAUAUCUAAAACGAAACAUGAGGAUCACCCAUGUAACGAGUACACGUAUCAGAGAAGGUGCAGGGUGAAA [JR_SS002_Sub305]	0.0361 µM	0.0162 µM
AAUACACAUAGUCAGGAUAUCAAAAAUAAGACAUGAGGAUCACCCAUGUAAUAAGUAAAAGUAAAUGAGAAGGGACAGGGUGACC [JR_SS002_Sub403]	1.56 µM	0.199 µM
AAUACCACUAGCAAGGAUAUCUAAAACGAAACAUGAGGAUCACCCAUGUGACGACCACACGUAUCAGAGAAGGUGCAGGGUGAAU [JR_SS002_Sub306]	0.0242 µM	0.024 µM
AAUAGACAUGAGGAUCACCCAUGUAGAAUUAUGGGAGGAUAUACAAAGACGAGAGUCAGAGUAGAAGGCCUAGGAG [salish99-ss1-150]	0.0221 µM	0.0483 µM
AAUAUACAUGAGGAUCACCCAUGUAUUAAUAGCUGAGGAUAUACGGGUGAAAAUAGCAUAGUAGAAGGCGGGUGUA [SameState1 Malc#10]	0.107 µM	0.144 µM
AAUAUACAUGAGGAUCACCCAUGUUAGGUGGGACUAGGAUAUCAAAAUAAAUAAAGAACAUGAGAAGGAGUAUAAA [JR_SS001_Sub017]	0.0753 µM	0.177 µM
AAUAUAUUAAGUGAGGAUAUCGAGGAAAAAACAUGAGGAUCACCCAUGUGGGAAACAUGGUCGGGUGAGAAGGCACUUAAUAUAU [Samwise Clockwise 25 - Jieux - Same State 2]	0.125 µM	0.326 µM
AAUCCAAAUAGUCAGGAUAUCAAAAAUAAGACAUGAGGAUCACCCAUGUAAUAAGUAAAAGUAAAUGAGAAGGGACAGGGUGAAA [JR_SS002_Sub401]	0.398 µM	0.0928 µM
ACAAACAAAAAAGAGGAUAUCCUAAACAAAACAUGAGGAUCACCCAUGUAAAAAAAAAUAAAAUGGGAGAAGGCUUACAACAAAC [SS2 M 23]	0.068 µM	0.0517 µM
ACUAGGAAGAGAGAGGAUAUCCAAAGGAAAACAUGAGGAUCACCCAUGUAAAAGGUAGGAAAUUGGGAGAAGGCUCAAGAGAGAG [salish99-ss2-085]	0.0229 µM	0.0244 µM
ACUAUACAUGAGGAUCACCCAUGUUAGGUGGGACUAGGAUAUCAAAAGCCAGAGUAAGAAUGAGAAGGAGUAGAAA [JR_SS001_Sub301]	0.0328 µM	0.0348 µM
AGAAAACAUGAGGAUCACCCAUGUAGAAACAUGGGAGGAUAUACAAAGACGAAAGUCAAAGUAGAAGGCCUAAAAA [Mat - Same State 1 - Mod - D163]	0.0757 µM	0.14 µM
AGAAAACAUGAGGAUCACCCAUGUAGAAAUAUGGGAGGAUAUACAAAGACGAAAGUCAAAGUAGAAGGCCUAAAAG [Mat - Same State 1 - Eli mod - 35]	0.0232 µM	0.0783 µM
AGAAAACAUGAGGAUCACCCAUGUAGAAAUAUGGGAGGAUAUACGAAGACGAAAGUCAAAGUAGAAGGCCUAAGAA [Mat - Same State 1 - Eli mod - D108]	0.0188 µM	0.0517 µM
AGAAAACAUGAGGAUCACCCAUGUGACAAUAUGGGAGGAUAUACCAAGACGAAAGUCGAAGUAGAAGGCCUAAAGA [Garnet 51]	0.0229 µM	0.0698 µM
AGAAAUAAAACGAAGGAUAUCCAAAAUAAAACAUGAGGAUCACCCAUGUAAAAGAAAAUAAAGUGGGAGAAGGUCGAAAAUAAGA [Designing denovo 15]	0.012 µM	0.0544 µM

Sequence	apparent KD of MS2 coat protein (MS2 coat protein [1])	apparent KD of MS2 coat protein (MS2 coat protein [2])
AGAAAUAAAAGACAGGAUAUCCAAAACUCAACAUGAGGAUCACCCAUGUAAAAGAAAAUAAAAUGGGAGAAGGGUCAAAAUAAGA [Jieux modified + C segment V2]	0.0153 µM	0.0338 µM
AGAAAUAAAAGACAGGAUAUCCACUCAAAAACAUGAGGAUCACCCAUGUAAAAGAAAAUAAAAUGGGAGAAGGGUCAAAAUAAGA [Jieux modified + C segment V7]	0.0155 µM	0.0486 µM
AGAAAUAAAAGAGAGGAUAUCCAAAAAGGGACAUGAGGAUCACCCAUGUAAAAGAAAAUAAAAUGGGAGAAGGCUCAAAAUAAAG [80%, More Helter Skelter 2]	0.0973 µM	0.12 µM
AGAAAUAAAAGAGAGGAUAUCCAAAAGAAAACAUGAGGAUCACCCAUGUAAAACAAAACAAAAUGGGAGAAGGCUCAAAAUAAGA [Topaz 15]	0.0198 µM	0.0314 µM
AGAAAUAAAGCUGAGGAUAUGGGUAAAUACACAUGAGGAUCACCCAUGUAAAAGAAAAUAAAAAACCAGAAGGCAGCAAAUAAGA [Designing denovo 4]	0.0234 µM	0.0308 µM
AGAAAUAAAGGAGAGGAUAUCCAAAAGAAAACAUGAGGAUCACCCAUGUAAAAGAAAAUAAAGUGGGAGAAGGCUUCAAAUAAGA [Starry modified V5]	0.0187 µM	0.0452 µM
AGAAAUAAAGGAGAGGAUAUUCAAAAAGGGACAUGAGGAUCACCCAUGUAAAAGAAAAUAAAAUGGGAGAAGGCUCUAAAUAAAG [80%, More Helter Skelter 2]	0.0496 µM	0.0472 µM
AGAAGACAUGAGGAUCACCCAUGUGCACGUGGAGGAGGAUAUGCUAGUAGAAGAUAGAAUGCAGAAGGCCUAAGAA [Mat - Mod]	0.0519 µM	0.0385 µM
AGAAGACAUGAGGAUCACCCAUGUGGGAUUAUGGGAGGAUAUACAAAGACGAGAGUCAGAGUAGAAGGCCUAGGAU [salish99-ss1-113(!)]	0.0247 µM	0.0708 µM
AGAUCUAGAAGGUAGGAUAUGUGAAAAAAAACAUGAGGAUCACCCAUGUGAUGAAUAAAAAGAAAAUAGAAGGACCAUCUAGAUC [Cross swing 1]	0.016 µM	0.059 µM
AGCGAACAUGAGGAUCACCCAUGUGAAAAACAUAGAGGAUAUGUCGCAUGCGUGUAAAAGACAGAAGGCUAUCGCG [Mat - Mod of Nando]	0.024 µM	0.0521 µM
AGGAAACAUGAGGAUCACCCAUGUAAAAAAUAUGGAGGAUAUGCUAGAAGAAACAAAAUAGCAGAAGGCCAAAAAA [75%, Ex sub1, 23]	0.0137 µM	0.0247 µM
AGGAAACAUGAGGAUCACCCAUGUAAAAAUAACGCAGGAUAUGGAAACACGAAAGUGAAACCAGAAGGGUGAAAAG [77%, Mat - Mod of Eli, 14]	0.0189 µM	0.0298 µM
AGGAGACAUGAGGAUCACCCAUGUAGAAGGAUGGGAGGAUAUACAAAGACGAGAGUCAGAGUAGAAGGCCUAGGAA [salish99-ss1-182(!)]	0.0197 µM	0.0554 µM
AUAAAACAUGAGGAUCACCCAUGUAAAAAUAUGGAAGGAUAUACGUAGUAAAAUAAAUACGUAGAAGGUCCAAAAA [SS! MT 21]	0.015 µM	0.0197 µM
AUAAAACAUGAGGAUCACCCAUGUAGAAAUAAGGGAGGAUAUACAAAGACGAAAGUCAAAGUAGAAGGCUCAAAAG [76%, Meechl 5]	0.0168 µM	0.0243 µM
